The source of these data is US20030181408A1, “Genes essential for microbial proliferation and antisense thereto” (priority 1999, published 2003).

Broadly, the IC50 is the concentration that gives 50% inhibition.

The test system of data set [1] is E. coli transformed with an IPTG-inducible plasmid containing antisense clones. Nature of the data set: Cell based assay: antibiotic sensitivity of E. coli expressing sublethal antisense RNA (Example 9). An excerpt: The effectiveness of the above cell based assay was validated using constructs expressing antisense RNA to the proliferation required E. coli genes rplL, rplJ, and rplW encoding ribosomal proteins L7/L12, L10 and L23 respectively. These proteins are part of the protein synthesis apparatus of the cell and as such are required for proliferation. These constructs were used to test the effect of antisense expression on cell sensitivity to antibiotics known to bind to the ribosome and thereby inhibit protein synthesis. Constructs expressing antisense RNA to several other genes (elaD, visC, yohh, and atpE/B), the products of which are not involved in protein synthesis were used for comparison.
First pLex5BA (Krause et al., J. Mol. Biol. 274: 365 (1997), the disclosure of which is incorporated herein by reference in its entirety) expression vectors containing antisense constructs to either rplW or to elaD were introduced into separate E. coli cell populations. Vector introduction is a technique well known to those of ordinary skill in the art. The expression vectors of this example contain IPTG inducible promoters that drive the expression of the antisense RNA in the presence of the inducer. However, those skilled in the art will appreciate that other inducible promoters may also be used. Suitable expression vectors are also well known in the art. The E. coli antisense clones encoding ribosomal proteins L7/L12, L10 and L23 were used to test the effect of antisense expression on cell sensitivity to the antibiotics known to bind to these proteins. […]
The cell populations were exposed to a range of IPTG concentrations in liquid medium to obtain the growth inhibitory dose curve for each clone (FIG. 1). First, seed cultures were grown to a particular turbidity that is measured by the optical density (OD) of the growth solution. […] The cells were grown for up to 15 hours and the extent of growth was determined by measuring the optical density of the cultures at 600 nm. […]

Data set [2] concerns bacterial strain engineered for expression of an antisense against rplL and rplJ (50S ribosomal subunit proteins). Kind of data set: microbe, parasite or virus in culture. The following applies: read-out: IC50 (+I). Format: cell-based, E. coli. How it is done: Antibiotics of various chemical classes and modes of action were purchased from Sigma Chemicals (St. Louis, Mo.). Stock solutions were prepared by dissolving each antibiotic in an appropriate aqueous solution based on information provided by the manufacturer. The final working solution of each antibiotic contained no more than 0.2% (w/v) of any organic solvent. To determine their potency against a bacterial strain engineered for expression of an antisense against a proliferation-required gene encoding 50S ribosomal protein, each antibiotic was serially diluted two or three fold in growth medium supplemented with the appropriate antibiotic for maintenance of the anti-sense construct. At least ten dilutions were prepared for each antibiotic. 25 μL aliquots of each dilution were transferred to discrete wells of a 384-well microplate (the assay plate) using a multi-channel pipette. Quadruplicate wells were used for each dilution of an antibiotic under each treatment condition (plus and minus inducer). Each assay plate contained twenty wells for cell growth controls (growth media replacing antibiotic), ten wells for each treatment (plus and minus inducer, in this example IPTG). Assay plates were usually divided into the two treatments: half the plate containing induced cells and an appropriate concentrations of inducer (in this example IPTG) to maintain the state of induction, the other half containing non-induced cells in the absence of IPTG.
Cells for the assay were prepared as follows. Bacterial cells containing a construct, from which expression of antisense nucleic acid against rplL and rplJ, which encode proliferation-required 50S ribosomal subunit proteins, is inducible in the presence of IPTG, were grown into exponential growth (OD600 0.2 to 0.3) and then diluted 1:100 into fresh media containing either 400 μM or 0 μM inducer (IPTG). These cultures were incubated at 37° C. for 2.5 hr. After a 2.5 hr incubation, induced and non-induced cells were respectively diluted into an assay medium at a final OD600 value of 0.0004. The medium contained an appropriate concentration of the antibiotic for the maintenance of the anti-sense construct. In addition, the medium used to dilute induced cells was supplemented with 800 μM IPTG so that addition to the assay plate would result in a final IPTG concentration of 400 μM. Induced and non-induced cell suspensions were dispensed (25 μl/well) into the appropriate wells of the assay plate as discussed previously. The plate was then loaded into a plate reader, incubated at constant temperature, and cell growth was monitored in each well by the measurement of light scattering at 595 nm. Growth was monitored every 5 minutes until the cell culture attained a stationary growth phase. For each concentration of antibiotic, a percentage inhibition of growth was calculated at the time point corresponding to mid-exponential growth for the associated control wells (no antibiotic, plus or minus IPTG). For each antibiotic and condition (plus or minus IPTG), a plot of percent inhibition versus log of antibiotic concentration was generated and the IC50 determined.

For the next data set, the system named is E. coli. Nature of the data set: Inhibition of E. coli proliferation after IPTG induction of antisense clones (liquid growth curves, dilution spotting on plates). Format: cell-based, Escherichia coli. To be noted: 1 mM IPTG. How it is done:
(§1) To study the effects of transcriptional induction in liquid medium, growth curves were carried out by back diluting cultures 1:200 into fresh media with or without 1 mM IPTG and measuring the OD450 every 30 minutes (min). To study the effects of transcriptional induction on solid medium, 10^2, 10^3, 10^4, 10^5, 10^6, 10^7 and 10^8 fold dilutions of overnight cultures were prepared. Aliquots of from 0.5 to 3 μl of these dilutions were spotted on selective agar plates with or without 1 mM IPTG. After overnight incubation, the plates were compared to assess the sensitivity of the clones to IPTG.
(§2) Molecule No. EcXA059, encoding a portion of the ypjA gene of Escherichia coli, was either transformed directly into Enterobacter cloacae, Salmonella typhimurium and/or Klebsiella pneumoniae or subdloned into an expression vector functional in these species and the subclones transformed into these organisms. Suitable expression vectors are well known in the art. These expression vectors were introduced into Enterobacter cloacae, Salmonella typhimurium and/or Klebsiella pneumoniae cells that were then assayed for growth inhibition according to the method of Example 1. After growth in liquid culture, cells were plated at various serial dilutions and a score determined by calculating the log difference in growth for INDUCED vs. UNINDUCED antisense RNA expression as determined by the maximum 10 fold dilution at which a colony was observed. If there was no effect of antisense RNA expression in one organism, the clone is given a score of zero “0” in that organism. In contrast, a score of “8” means that 10^8 times more cells were required to observe a colony formed on the induced state than in the non-induced state under the conditions used and in that organism.

The next data set deals with Enterobacter cloacae. Nature of the data set: Growth inhibition by IPTG-induced antisense RNA expression in Enterobacter cloacae (induced vs. uninduced serial dilution plating). The format is cell-based. How it is done: as §1, §2
(§3) Expression vectors which inhibited growth of E. coli upon induction of antisense RNA expression with IPTG were transformed directly into Enterobacter cloacae, Klebsiella pneumonia or Salmonella typhimurium. The transformed cells were then assayed for growth inhibition according to the method of Example 1. After growth in liquid culture, cells were plated at various serial dilutions and a score determined by calculating the log difference in growth for INDUCED vs. UNINDUCED antisense RNA expression as determined by the maximum 10 fold dilution at which a colony was observed. If there was no effect of antisense RNA expression in a microorganism, the clone is minus in Table V below. In contrast, a positive in Table V below means that at least 10 fold more cells were required to observe a colony on the induced plate than on the non-induced plate under the conditions used and in that microorganism.

The test system of the next data set is Salmonella typhimurium. Kind of data set: Growth inhibition by IPTG-induced antisense RNA expression in Salmonella typhimurium (induced vs. uninduced serial dilution plating). Format: cell-based. How it is done:
as §1, §2, §3

The next data set has as its system Klebsiella pneumoniae. Kind of data set: Growth inhibition by IPTG-induced antisense RNA expression in Klebsiella pneumoniae (induced vs. uninduced serial dilution plating). Format: cell-based. How it is done: as §1, §2, §3

Converted amounts (≈) assume the structure as drawn.

As to `CC1COc2c(N3CCN(C)CC3)c(F)cc3c(=O)c(C(=O)O)cn1c23` (stereo not drawn) [Ofloxacin], the “sensitivity to antibiotics which do not inhibit protein synthesis” value in data set [1] (clone expressing antisense to rplL and rplJ) is given as “does not show increased sensitivity”. For the same molecule, in data set [2], the IC50 came out at 0.0458 mg/L (≈ 0.127 µM).

With `CN(C)[C@@H]1C(O)=C(C(N)=O)C(=O)[C@@]2(O)C(O)=C3C(=O)c4c(O)cccc4[C@@](C)(O)[C@H]3C[C@@H]12` [Tetracycline], the “sensitivity to tetracycline (tetracycline IC50 with IPTG vs. without IPTG)” value in data set [1] (cells expressing antisense to genes not involved in protein synthesis (atpB/E, visC, elaD, yohH)) is “did not show the same increased sensitivity”; in data set [1] (cells with reduced levels of L7/L12 (rplL, rplJ) or L23 (rplW), IPTG giving 50% growth inhibition), “increased sensitivity”.

B1: EcXA083: antisense clone insert, E. coli gene hrpB (nucleic acid, listed as Escherichia coli)
DNA: CGGCTTAGCGCGTCGTTGGCATCGAGCATCGCTCCCATGCCGTTTGCCAGTTGATAGCGTCCATCTTGCC
Take B1: the “effect of antisense expression on E. coli growth after IPTG induction” value with E. coli is given as “reduction in cell growth”. In addition, in the data set on Enterobacter cloacae, the “Sensitivity of E. cloacae to antisense nucleic acid (growth inhibition, induced vs. uninduced)” value is “−”. Also, the “Sensitivity of S. typhimurium to antisense nucleic acid (growth inhibition, induced vs. uninduced)” value with Salmonella typhimurium is on record as “−”. The “Sensitivity of K. pneumoniae to antisense nucleic acid (growth inhibition, induced vs. uninduced)” value in the data set on Klebsiella pneumoniae is “−”.

B2: EcXA062: antisense clone insert, E. coli gene rep (nucleic acid, listed as Escherichia coli)
DNA: CGCGTGGAGAGTCATCAGTTGCACCTGATCCAGCTCTTCTTCACTCTCACCACGCTCNATCATGTCGCGCAAAGTAAAGCGCGTCACCACCTGGGTGAGCGTCATCGGCTCATCCAGTTCACTGCCTTCCAGCATCTCCGTCATCCAGCTAAACAGTTGGTTGACGTTCTTCATGCGCATTTCGGCGGCTTTCGGGCTGGGCGATGTTTCGTACAGCCAGGATTCATAATCCATGCCATGGATCAGATCACGCACCGCGGCAATCGGCTCCCGCTCCGCCAGACGCTGGATTTCTGCCAACCAGTGAGTGAAGCGGGTCAATGCTTCA
modifications: misc_feature (1)...(328): n = A,T,C or G
notes: antisense clone insert, E. coli gene rep
As for B2, the “effect of antisense expression on E. coli growth after IPTG induction” value in the data set with E. coli was “reduction in cell growth”. The “Sensitivity of E. cloacae to antisense nucleic acid (growth inhibition, induced vs. uninduced)” value in the data set on Enterobacter cloacae is “−”. In addition, in the data set on Salmonella typhimurium, the “Sensitivity of S. typhimurium to antisense nucleic acid (growth inhibition, induced vs. uninduced)” value was “−”. Besides, the “Sensitivity of K. pneumoniae to antisense nucleic acid (growth inhibition, induced vs. uninduced)” value in the data set on Klebsiella pneumoniae was “−”.
